From patent US20240327530A1 (ICHNOS SCIENCES, published 2024)
Residue numbers refer to the chain shown, from its start. Names and notes keep the numbering of the source.

T1: Recombinant human IL-1RAP Fc fusion protein (Acrobiosystems, catalog no. ILP-H5256) (human, UniProt Q9NPH3 21-359, limits assumed)
T1 construct: Bought; not shown: Fc part of the bought fusion protein
T1 sequence: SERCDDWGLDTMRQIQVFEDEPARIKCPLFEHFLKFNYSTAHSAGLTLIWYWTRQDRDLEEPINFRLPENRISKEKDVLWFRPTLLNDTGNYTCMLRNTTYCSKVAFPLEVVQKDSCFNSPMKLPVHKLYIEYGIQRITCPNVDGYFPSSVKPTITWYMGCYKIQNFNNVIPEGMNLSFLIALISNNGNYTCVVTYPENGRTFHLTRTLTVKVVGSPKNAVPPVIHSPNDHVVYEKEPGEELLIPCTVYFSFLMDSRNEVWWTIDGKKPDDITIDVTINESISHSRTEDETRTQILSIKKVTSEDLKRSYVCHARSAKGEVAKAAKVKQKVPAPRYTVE

T2: Recombinant mouse IL-1RAP Fc fusion protein (Sino Biologicals, catalog no. 52657-M02H) (mouse, UniProt Q61730 21-350)
T2 construct: Bought; not shown: Fc part of the bought fusion protein
T2 sequence: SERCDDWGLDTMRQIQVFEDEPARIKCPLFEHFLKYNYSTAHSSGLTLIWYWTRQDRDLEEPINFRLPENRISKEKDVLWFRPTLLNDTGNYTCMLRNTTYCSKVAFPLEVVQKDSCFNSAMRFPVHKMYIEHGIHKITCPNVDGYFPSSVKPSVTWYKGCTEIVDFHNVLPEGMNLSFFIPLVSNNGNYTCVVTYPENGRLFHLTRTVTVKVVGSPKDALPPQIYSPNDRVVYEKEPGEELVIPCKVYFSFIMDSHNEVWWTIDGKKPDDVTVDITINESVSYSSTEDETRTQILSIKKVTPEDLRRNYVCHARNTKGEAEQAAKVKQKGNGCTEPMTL

T3: Recombinant cynomolgus monkey IL-1RAP-ECD(S21-E359)-avi-his protein (cynomolgus monkey, UniProt P59822 21-359 (rhesus entry))
T3 construct: also called cyno IL-1RAP-ECD-Avi-His; recombinant cynomolgus monkey IL-1RAP-avi-his protein
T3 sequence: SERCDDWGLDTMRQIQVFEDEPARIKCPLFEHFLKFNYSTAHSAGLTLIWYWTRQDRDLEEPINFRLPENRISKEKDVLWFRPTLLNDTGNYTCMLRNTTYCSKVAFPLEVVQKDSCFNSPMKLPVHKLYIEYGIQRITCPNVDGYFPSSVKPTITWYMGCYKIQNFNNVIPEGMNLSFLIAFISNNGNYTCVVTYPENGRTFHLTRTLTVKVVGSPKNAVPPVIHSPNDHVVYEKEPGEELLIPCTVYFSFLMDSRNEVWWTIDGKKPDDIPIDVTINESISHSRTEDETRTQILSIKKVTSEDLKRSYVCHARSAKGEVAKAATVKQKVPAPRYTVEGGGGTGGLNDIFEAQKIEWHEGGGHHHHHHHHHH

T4: Recombinant human IL-1RAP-ECD(S21-E359)-avi-his protein (human, UniProt Q9NPH3 21-359)
T4 construct: Biotinylated where loaded on streptavidin; also called human IL-1RAP-ECD-Avi-His; recombinant human IL-1RAP-avi-his protein
T4 sequence: T3 sequence with F183L, P273T, T326K

B1: Anti-IL-1RAP-C8-recA-Fab (Fab, V domains shown)
VH: QVQLVQSGAEVKKPGSSVKVSCKASGSTWEPYAIQWVRQAPGQGLEWMGYIIPSLGGYDYAQKFQGRVTITADESTSTAYMELSSLRSEDTAVYYCARGQTLYDSGRQFDIWGQGTLVTVSS
VL: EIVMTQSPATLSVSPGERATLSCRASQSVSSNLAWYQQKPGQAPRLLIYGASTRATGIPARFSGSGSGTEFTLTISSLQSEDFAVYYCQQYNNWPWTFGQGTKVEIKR
B2: Anti-IL-1RAP-C8-H1B-H10-Fab (Fab, V domains shown)
VH: B1 VH with S54L, L55H, G57Q, Y58V
VL: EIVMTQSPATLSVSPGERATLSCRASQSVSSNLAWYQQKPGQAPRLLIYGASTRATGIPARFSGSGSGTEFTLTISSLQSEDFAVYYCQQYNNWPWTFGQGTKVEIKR
B3: Anti-IL-1RAP-C8-recC-Fab (Fab, V domains shown)
VH: B1 VH with T28P, W29A
VL: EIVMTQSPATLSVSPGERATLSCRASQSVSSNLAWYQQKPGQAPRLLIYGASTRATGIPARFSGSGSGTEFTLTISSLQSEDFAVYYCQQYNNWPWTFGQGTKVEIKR
notes: also called Fab clone anti-IL-1RAP-C8-RecC
B4: Anti-IL-1RAP-C8-H2B-C10-Fab (Fab, V domains shown)
VH: B1 VH with S27G, T28Q, W29F, E30S, P31E
VL: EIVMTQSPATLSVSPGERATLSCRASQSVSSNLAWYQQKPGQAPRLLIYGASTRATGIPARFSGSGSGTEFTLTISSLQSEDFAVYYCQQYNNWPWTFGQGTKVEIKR
notes: also called ISB 880-C8-H2B-C10
B5: Anti-IL-1RAP-C8-H2B-B5-Fab (Fab, V domains shown)
VH: B1 VH with S27G, T28Q, W29F, E30S, P31E, S54T, L55V, Y58F
VL: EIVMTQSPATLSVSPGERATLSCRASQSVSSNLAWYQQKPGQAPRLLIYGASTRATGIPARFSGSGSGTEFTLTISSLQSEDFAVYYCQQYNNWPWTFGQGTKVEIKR
B6: Anti-IL-1RAP-C8-recB-Fab (Fab, V domains shown)
VH: B1 VH with S27G, T28P, W29R, E30R, P31A
VL: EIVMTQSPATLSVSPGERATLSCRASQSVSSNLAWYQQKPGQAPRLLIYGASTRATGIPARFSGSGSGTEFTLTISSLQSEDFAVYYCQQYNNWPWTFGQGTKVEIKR
B7: Anti-IL-1RAP-C3-MP01-A2 Fab (Fab, V domains shown)
VH: EVQLLESGGGLVQPGGSLRLSCAASGFTFAEYAMNWVRQAPGKGLEWVSAISYDGEGTLYADSVKGRFTISRDNSKNTLYLQMNSLRAEDTAVYYCARFRYYTAFDYWGQGTLVTVSS
VL: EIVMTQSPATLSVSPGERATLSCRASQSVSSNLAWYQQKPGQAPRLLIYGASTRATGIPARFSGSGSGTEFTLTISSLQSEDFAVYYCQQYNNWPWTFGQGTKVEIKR
B8: Anti-IL-1RAP-C3-MP01-B7 Fab (Fab, V domains shown)
VH: B7 VH with F29L, A30S, E31G, Y32F, A33S, N35S
VL: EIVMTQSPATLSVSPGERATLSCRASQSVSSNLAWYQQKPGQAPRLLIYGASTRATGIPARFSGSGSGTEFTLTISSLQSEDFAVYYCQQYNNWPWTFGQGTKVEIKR
B9: Anti-IL-1RAP-C3-MP01-B5 Fab (Fab, V domains shown)
VH: B7 VH with T28I, A30S, E31T, A33G, N35G
VL: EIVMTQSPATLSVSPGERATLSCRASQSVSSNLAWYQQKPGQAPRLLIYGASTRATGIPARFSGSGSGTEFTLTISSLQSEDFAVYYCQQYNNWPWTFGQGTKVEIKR
B10: Anti-IL-1RAP-C3-MP02-F6 Fab (Fab, V domains shown)
VH: B7 VH with A30P, E31D, A33P, M34L, N35G
VL: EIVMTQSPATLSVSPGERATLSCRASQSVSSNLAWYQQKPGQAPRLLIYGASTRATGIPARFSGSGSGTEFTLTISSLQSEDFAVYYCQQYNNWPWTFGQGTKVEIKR
B11: Anti-IL-1RAP-C3-MP01-D2 Fab (Fab, V domains shown)
VH: B7 VH with A30S, E31Q, Y32F, A33G, N35T
VL: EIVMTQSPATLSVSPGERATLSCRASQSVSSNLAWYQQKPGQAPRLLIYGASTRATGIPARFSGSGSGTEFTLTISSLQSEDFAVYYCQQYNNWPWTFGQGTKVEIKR
B12: Anti-IL-1RAP-C3-MP02-G2 Fab (Fab, V domains shown)
VH: B7 VH with F29Y, A30D, E31V, Y32A, A33P, N35G
VL: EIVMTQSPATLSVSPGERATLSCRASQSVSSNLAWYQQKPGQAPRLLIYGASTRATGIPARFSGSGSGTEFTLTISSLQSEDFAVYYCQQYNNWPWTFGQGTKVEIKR
B13: Anti-IL-1RAP-C3-MP02-B8 Fab (Fab, V domains shown)
VH: B7 VH with A30E, E31H, Y32S, A33S, M34A, N35G
VL: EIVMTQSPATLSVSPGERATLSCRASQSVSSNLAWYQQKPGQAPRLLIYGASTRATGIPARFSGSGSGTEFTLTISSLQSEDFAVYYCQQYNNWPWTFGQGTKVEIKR
B14: Anti-IL-1RAP-C3-MP01-F5 Fab (Fab, V domains shown)
VH: B7 VH with T28P, F29L, A30S, E31N, A33G, N35S
VL: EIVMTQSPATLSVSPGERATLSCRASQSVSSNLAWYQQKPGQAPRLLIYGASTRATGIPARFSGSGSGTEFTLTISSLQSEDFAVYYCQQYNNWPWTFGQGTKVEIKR
B15: Anti-IL-1RAP-C3-MP01-A3 Fab (Fab, V domains shown)
VH: B7 VH with T28I, A30S, E31H, A33G, N35S
VL: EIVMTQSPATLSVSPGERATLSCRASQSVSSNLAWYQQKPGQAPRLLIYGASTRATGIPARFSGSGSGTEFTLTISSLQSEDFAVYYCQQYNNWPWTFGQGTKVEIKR
notes: also called Fab clone anti-IL-1RAP-C3-A3
B16: Anti-IL-1RAP-C3-MP01-G10 Fab (Fab, V domains shown)
VH: B7 VH with A30S, E31H, A33G, N35S
VL: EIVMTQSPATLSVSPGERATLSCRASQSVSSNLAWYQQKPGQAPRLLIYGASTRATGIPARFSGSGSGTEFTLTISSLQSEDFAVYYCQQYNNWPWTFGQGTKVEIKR
B17: Anti-IL-1RAP-C8-recC IgG1 LALA (antibody, V domains shown)
VH: B1 VH with T28P, W29A
VL: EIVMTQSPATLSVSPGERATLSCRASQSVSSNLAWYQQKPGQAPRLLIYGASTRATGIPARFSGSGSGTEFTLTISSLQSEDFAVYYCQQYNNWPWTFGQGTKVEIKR
notes: Human IgG1 with L234A/L235A (EU); whether it is the full heavy chain or only VH is not clear; also called ISB 880-C8-recC
B18: Anti-IL-1RAP-C8-RecC-DA-IgG1LALA (antibody, V domains shown)
VH: B1 VH with T28P, W29A, S105A
VL: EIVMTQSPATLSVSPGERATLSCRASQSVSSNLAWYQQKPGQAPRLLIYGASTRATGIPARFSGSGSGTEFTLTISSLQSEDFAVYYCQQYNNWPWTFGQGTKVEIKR
notes: Human IgG1 LALA; D100/S100a (Kabat) of RecC replaced by DA; also called ISB 880-C8-recC-DA
B19: Anti-IL-1RAP-C8-RecC-ET-IgG1LALA (antibody, V domains shown)
VH: B1 VH with T28P, W29A, D104E, S105T
VL: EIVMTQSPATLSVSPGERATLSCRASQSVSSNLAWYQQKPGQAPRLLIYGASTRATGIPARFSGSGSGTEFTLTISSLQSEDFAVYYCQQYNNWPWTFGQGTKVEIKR
notes: Human IgG1 LALA; also called ISB 880-C8-recC-ET
B20: Anti-IL-1RAP-C8-RecC-AS-IgG1LALA (antibody, V domains shown)
VH: B1 VH with T28P, W29A, D104A
VL: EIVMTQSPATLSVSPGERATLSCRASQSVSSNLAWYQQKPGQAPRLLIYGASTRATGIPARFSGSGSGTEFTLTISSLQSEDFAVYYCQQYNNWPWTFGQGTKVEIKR
notes: Human IgG1 LALA; D100/S100a (Kabat) of RecC replaced by AS; also called ISB 880-C8-recC-AS
B21: Anti-IL-1RAP-C8-RecC-AA-IgG1LALA (antibody, V domains shown)
VH: B1 VH with T28P, W29A, D104A, S105A
VL: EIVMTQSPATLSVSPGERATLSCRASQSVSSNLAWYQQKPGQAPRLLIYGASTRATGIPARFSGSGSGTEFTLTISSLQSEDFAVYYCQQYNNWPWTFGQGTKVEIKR
notes: Human IgG1 LALA; also called ISB 880-C8-recC-AA

Target: T1, Recombinant human IL-1RAP Fc fusion …
Assay: SPR, human IL-1RAP-Fc captured, Fab as analyte (0.08 to 50 nM)
Protocol: BR100669) at a flow rate of 30 μl/min for 3 min on fc1 and fc2 (fc1 being used as reference). Dissociation was monitored for 5 min. After each cycle, the surface was regenerated with 60 μl of regeneration solution provided with anti-human IgG Fc capture kit (BIACORE™, GE […]®, catalog no. BR100839) or BiotinCAPture kit (BIACORE™, GE […]®, catalog no. 28920234) respectively. Experimental data were processed using the 1:1 Langmuir kinetic fitting model. Measurements included zero-concentration samples for referencing. Chi², U- and residual values were used to evaluate the quality of a fit between the experimental data and individual binding models. […]

Row | Kd | Binder
1 | 0.051 nM | B1
2 | 0.209 nM | B2
3 | 0.038 nM | B3
4 | 0.589 nM | B4
5 | 1.37 nM | B5
6 | 0.052 nM | B6

Target: T2, Recombinant mouse IL-1RAP Fc fusion …
Assay: SPR, mouse IL-1RAP-Fc captured, Fab as analyte (0.04 to 5 nM)
Protocol: Affinities of the Fab fragments to mouse IL-1RAP were measured as described in Example 1, with the following modifications. Measurements were performed on Series S CM5 sensor chips (BIACORE™ T200, BIACORE™, GE […]®, catalog no. BR100530) coupled with anti-human IgG Fc (BIACORE™, GE […]®, catalog no. BR100839) using a commercial amine coupling kit (BIACORE™, GE […]®, catalog no. BR100050). SPR measurements were performed with commercially available recombinant mouse IL-1RAP Fc fusion protein (Sino Biologicals, catalog no. 52657-M02H). The affinities to mouse IL-1RAP were assessed by immobilizing mouse IL-1RAP-Fc and using Fab fragments as analyte. Around 60 RUs of mouse IL-1RAP Fc fusion protein were captured on fc2 of a Series S CM5 sensor chip coupled with anti-human IgG Fc. Fab fragments were injected in single cycle kinetic at different concentrations ranging from 0.04 to 5 nM, in HBS-EP+ buffer (BIACORE™, GE […]®, catalog no. BR100669) at a flow rate of 30 μl/min for 3 min on fc1 and fc2 (fc1 being used as reference). Dissociation was monitored for 10 min.

Row | Kd | Binder
7 | 0.68 nM | B7
8 | 0.17 nM | B8
9 | 0.21 nM | B9
10 | 0.26 nM | B10
11 | 0.22 nM | B11
12 | 0.32 nM | B12
13 | 0.49 nM | B13
14 | 0.28 nM | B14
15 | 0.14 nM | B15
16 | 0.21 nM | B16

Target: T3, Recombinant cynomolgus monkey …
Assay: SPR, IgG1 LALA captured by anti-human Fc, cyno IL-1RAP-avi-his as analyte, 1:1 fit
Protocol: (§1) Surface plasmon resonance (SPR) was used to measure the binding affinities of the human IgG1 LALA molecules for human and cynomolgus monkey IL-1RAP. Affinities were measured on a BIACORE™ T200 instrument (BIACORE™, GE […]®) at 25° C. and analyzed with the BIACORE™ T200 Evaluation Software (v3.1). Measurements were performed on Series S CM5 sensor chips (BIACORE™ T200, BIACORE™, GE […]®, catalog no. BR100530) coupled with anti-human IgG Fc (BIACORE™, GE […]®, catalog no. BR100839) using a commercial amine coupling kit (BIACORE™, GE […]®, catalog no. BR100050). SPR measurements were performed with recombinant human IL-1RAP-avi-his protein produced in house (SEQ ID NO. 1) or recombinant cynomolgus monkey IL-1RAP-avi-his protein produced in house (SEQ ID NO. 2). The affinities to human and cynomolgus monkey IL-1RAP were assessed by immobilizing anti-IL-1RAP IgG1 LALA molecules and using IL-1RAP proteins as analyte. Around 150 RU of human IgG1 LALA were captured on fc2 of a Series S CM5 sensor chip coupled with anti-human IgG Fc. Recombinant human IL-1RAP-avi-his protein or recombinant cynomolgus monkey IL-1RAP-avi-his protein was injected in multi cycle kinetic at different concentrations ranging from 0.14 to 100 nM, in HBS-EP+ buffer (BIACORE™, GE […]®, catalog no. BR100669) at a flow rate of 30 μl/min for 3 min on fc1 and fc2 (fc1 being used as reference). Dissociation was monitored for 12 min. After each cycle, the surface was regenerated with 60 μl of regeneration solution provided with anti-human IgG Fc capture kit (BIACORE™, GE […]®, catalog no. BR100839). Experimental data were processed using the 1:1 Langmuir kinetic fitting model. Measurements included zero-concentration samples for referencing. Chi², U- and residual values were used to evaluate the quality of a fit between the experimental data and individual binding models.

Row | Kd | koff | kon | Binder
17 | 0.276 nM | 0.000236 s⁻¹ | 854000 M⁻¹ s⁻¹ | B17
18 | 0.145 nM | 0.00019 s⁻¹ | 1.31e+06 M⁻¹ s⁻¹ | B18
19 | 0.336 nM | 0.000308 s⁻¹ | 916000 M⁻¹ s⁻¹ | B19
20 | 0.254 nM | 0.00016 s⁻¹ | 628000 M⁻¹ s⁻¹ | B20
21 | 0.24 nM | 0.000187 s⁻¹ | 777000 M⁻¹ s⁻¹ | B21

Target: T4, Recombinant human …
Assay: SPR, IgG1 LALA captured by anti-human Fc, human IL-1RAP-avi-his as analyte, 1:1 fit
Protocol: as §1

Row | Kd | koff | kon | Binder
22 | 0.237 nM | 0.000199 s⁻¹ | 840000 M⁻¹ s⁻¹ | B17
23 | 0.14 nM | 0.000162 s⁻¹ | 1.16e+06 M⁻¹ s⁻¹ | B18
24 | 0.278 nM | 0.000253 s⁻¹ | 916000 M⁻¹ s⁻¹ | B19
25 | 0.287 nM | 0.000161 s⁻¹ | 561000 M⁻¹ s⁻¹ | B20
26 | 0.267 nM | 0.000169 s⁻¹ | 634000 M⁻¹ s⁻¹ | B21
